B1: GST-P/CAF (protein)
chain: MSEAGGAGPGGCGAGAGAGAGPGALPPQPAALPPAPPQGSPCAAAAGGSGACGPATAVAAAGTAEGPGGGGSARIAVKKAQLRSAPRAKKLEKLGVYSACKAEESCKCNGWKNPNPSPTPPRADLQQIIVSLTESCRSCSHALAAHVSHLENVSEEEMNRLLGIVLDVEYLFTCVHKEEDADTKQVYFYLFKLLRKSILQRGKPVVEGSLEKKPPFEKPSIEQGVNNFVQYKFSHLPAKERQTIVELAKMFLNRINYWHLEAPSQRRLRSPNDDISGYKENYTRWLCYCNVPQFCDSLPRYETTQVFGRTLLRSVFTVMRRQLLEQARQEKDKLPLEKRTLILTHFPKFLSMLEEEVYSQNSPIWDQDFLSASSRTSQLGIQTVINPPPVAGTISYNSTSSSLEQPNAGSSSPACKASSGLEANPGEKRKMTDSHVLEEAKKPRVMGDIPMELINEVMSTITDPAAMLGPETNFLSAHSARDEAARLEERRGVIEFHVVGNSLNQKPNKKILMWLVGLQNVFSHQLPRMPKEYITRLVFDPKHKTLALIKDGRVIGGICFRMFPSQGFTEIVFCAVTSNEQVKGYGTHLMNHLKEYHIKHDILNFLTYADEYAIGYFKKQGFSKEIKIPKTKYVGYIKDYEGATLMGCELNPRIPYTEFSVIIKKQKEIIKKLIERKQAQIRKVYPGLSCFKDGVRQIPIESIPGIRETGWKPSGKEKSKEPRDPDQLYSTLKSILQQVKSHQSAWPFMEPVKRTEAPGYYEVIRFPMDLKTMSERLKNRYYVSKKLFMADLQRVFTNCKEYNPPESEYYKCANILEKFFFSKIKEAGLIDK
B2: GST-p300 HAT domain 4 (protein)
chain: KPKRLQEWYKKMLDKAVSERIVHDYKDIFKQATEDRLTSAKELPYFEGDFWPNVLEESIKELEQEEEERKREENTSNESTDVTKGDSKNAKKKNNKKTSKNKSSLSRGNKKKPGMPNVSNDLSQKLYATMEKHKEVFFVIRLIAGPAANSLPPIVDPDPLIPCDLMDGRDAFLTLARDKHLEFSSLRRAQWSTMCMLVELHTQSQDRFVYTCNECKHHVETRWHCTVCEDYDLCITCYNTKNHDHKMEKLGLGLDDESNNQQAAATQSPGDSRRLSIQRCIQSLVHACQCRNANCSLPSCQKMKRVVQHTKGCKRKTNGGCPICKQLIALCCYHAKHCQENKCPVPFCLNIKQKLRQQQLQHRLQQAQMLRRRMASMQRTGVVGQQQGLPSPTPATPTTPTGQQPTTPQTPQPTSQPQPTPPNSMPPYLPRTQA

Columns and labels:
[1] = target: recombinant S6K1 (highly purified)
[2] = target: recombinant S6K2 (highly purified)
[3] = target: GST [GST: P08515]
GST [GST: P08515], sequence (P08515 whole entry): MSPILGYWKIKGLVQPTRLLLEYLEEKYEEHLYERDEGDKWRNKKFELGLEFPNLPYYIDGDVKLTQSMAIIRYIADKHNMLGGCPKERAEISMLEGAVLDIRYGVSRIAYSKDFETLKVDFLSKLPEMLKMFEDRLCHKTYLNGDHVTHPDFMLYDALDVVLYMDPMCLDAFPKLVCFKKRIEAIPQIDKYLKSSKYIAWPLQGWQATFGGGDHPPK

recombinant S6K2 (highly purified), sequence (chain, as listed by the source): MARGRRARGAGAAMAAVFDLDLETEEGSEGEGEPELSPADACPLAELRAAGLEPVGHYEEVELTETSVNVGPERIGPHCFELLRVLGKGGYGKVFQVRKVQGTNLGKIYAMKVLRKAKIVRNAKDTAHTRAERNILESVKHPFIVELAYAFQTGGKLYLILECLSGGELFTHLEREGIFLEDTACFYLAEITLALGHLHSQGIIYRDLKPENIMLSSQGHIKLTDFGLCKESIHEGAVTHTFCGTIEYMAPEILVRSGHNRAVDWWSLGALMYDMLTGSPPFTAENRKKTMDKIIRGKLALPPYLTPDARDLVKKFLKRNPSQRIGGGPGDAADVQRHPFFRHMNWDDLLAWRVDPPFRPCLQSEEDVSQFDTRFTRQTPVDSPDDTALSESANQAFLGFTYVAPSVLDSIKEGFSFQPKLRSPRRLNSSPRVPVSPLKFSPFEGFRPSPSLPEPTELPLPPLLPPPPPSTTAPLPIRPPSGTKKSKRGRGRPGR

Protein | in vitro acetylation (incorporation of 14C labelled acetyl groups, autoradiography) [1] | in vitro acetylation (incorporation of 14C labelled acetyl groups, autoradiography) [2] | in vitro acetylation [3]
B1 | when S6K1 and S6K2 were incubated in the presence of GST-p300 HAT domain 4 or GST-P/CAF, ^14C labeled acetyl groups were indeed incorporated into the proteins | when S6K1 and S6K2 were incubated in the presence of GST-p300 HAT domain 4 or GST-P/CAF, ^14C labeled acetyl groups were indeed incorporated into the proteins | 
B2 | when S6K1 and S6K2 were incubated in the presence of GST-p300 HAT domain 4 or GST-P/CAF, ^14C labeled acetyl groups were indeed incorporated into the proteins | when S6K1 and S6K2 were incubated in the presence of GST-p300 HAT domain 4 or GST-P/CAF, ^14C labeled acetyl groups were indeed incorporated into the proteins | no acetylation of GST is seen under these conditions

Source: US20090181003
